The Immune Epitope Database (IEDB)

Legend:
HLA-A*24:02 = experiment: IEDB peptide-MHC binding, purified MHC/competitive/fluorescence; ≥ and ≤ were set here for values at or beyond the usual limits of such assays
HLA-A*11:01 = experiment: as above
HLA-B*40:01 = experiment: IEDB peptide-MHC binding, purified MHC/competitive/radioactivity; filed as Kd, often an IC50 or EC50 that approximates it; ≥ and ≤ were set here for values at or beyond the usual limits of such assays
HLA-B*40:02 = experiment: as above
HLA-B*45:01 = experiment: as above
HLA-B*44:02 = experiment: as above
HLA-B*44:03 = experiment: as above
HLA-B*18:01 = experiment: as above
HLA-B*48:01 = experiment: IEDB peptide-MHC binding, purified MHC/direct/fluorescence; filed as Kd, often an IC50 or EC50 that approximates it; ≥ and ≤ were set here for values at or beyond the usual limits of such assays; conditions: source organism: Dengue virus
HLA-B*58:01 [1] = experiment: IEDB peptide-MHC binding, purified MHC/competitive/radioactivity; filed as Kd, often an IC50 or EC50 that approximates it; ≥ and ≤ were set here for values at or beyond the usual limits of such assays
HLA-A*30:02 = experiment: as above; conditions: source organism: Dengue virus 2 Jamaica/1409/1983
HLA-A*01:01 = experiment: as above; conditions: source organism: Dengue virus 2 Jamaica/1409/1983
HLA-A*02:01 [2] = experiment: as above
HLA-A*02:03 = experiment: as above
HLA-A*02:17 = experiment: as above
HLA-A*32:01 = experiment: as above; conditions: source organism: Dengue virus 3 Martinique/1243/1999
HLA-A*02:01 [3] = experiment: IEDB peptide-MHC binding, purified MHC/competitive/fluorescence; ≥ and ≤ were set here for values at or beyond the usual limits of such assays; conditions: source organism: Zaire ebolavirus
HLA-A*02:11 = experiment: IEDB peptide-MHC binding, purified MHC/direct/fluorescence; filed as Kd, often an IC50 or EC50 that approximates it; ≥ and ≤ were set here for values at or beyond the usual limits of such assays; conditions: source organism: Hantaanvirus CGRn93P8
HLA-A*02:01 [4] = experiment: as above; conditions: source organism: Orthohantavirus hantanense
HLA-A*02:12 = experiment: as above; conditions: source organism: Hantaanvirus CGRn93P8
HLA-A*02:19 = experiment: as above; conditions: source organism: Hantaanvirus CGRn93P8
HLA-B*58:01 [5] = experiment: as above; conditions: source organism: Vibrio parahaemolyticus
HLA-B*15:17 = experiment: as above; conditions: source organism: Vibrio parahaemolyticus
HLA-B*57:01 [6] = experiment: as above; conditions: source organism: Vibrio parahaemolyticus
HLA-B*57:01 [7] = experiment: IEDB peptide-MHC binding, purified MHC/competitive/radioactivity; filed as Kd, often an IC50 or EC50 that approximates it; ≥ and ≤ were set here for values at or beyond the usual limits of such assays; conditions: source organism: Dengue virus 2 Jamaica/1409/1983
[8] = source organism: Vaccinia virus
[9] = source organism: SARS coronavirus Tor2
[10] = source organism: Mammarenavirus lassaense
[11] = source organism: Dengue virus 2 Jamaica/1409/1983
[12] = source organism: Mammarenavirus machupoense
[13] = source organism: Zaire ebolavirus
[14] = source organism: Dengue virus 1 Singapore/S275/1990
[15] = source organism: Dengue virus 1 Brazil/97-11/1997
[16] = source organism: Dengue virus 4 Philippines/H241/1956
[17] = source organism: Dengue virus 3 Martinique/1243/1999
[18] = source organism: Dengue virus 2 Thailand/NGS-C/1944
[19] = source organism: Dengue virus 3 Singapore/8120/1995

PYEGGKVFA
IC50 (HLA-A*24:02; [8]): 13.9 µM | IC50 (HLA-A*11:01; [8]): ≥ 118 µM

QEIQLLAAV
Kd (HLA-B*40:01; [9]): 0.0265 µM | Kd (HLA-B*40:02; [9]): 19.3 µM | Kd (HLA-B*45:01; [9]): 0.00872 µM | Kd (HLA-B*44:02; [9]): 0.0933 µM | Kd (HLA-B*44:03; [9]): 0.0485 µM | Kd (HLA-B*18:01; [9]): 0.143 µM

REAYCQEFSL
Kd (HLA-B*40:01; [10]): 9.78 µM | Kd (HLA-B*40:02; [10]): 0.00134 µM | Kd (HLA-B*45:01; [10]): 1.54 µM | Kd (HLA-B*44:02; [10]): 1.06 µM | Kd (HLA-B*44:03; [10]): 2.79 µM | Kd (HLA-B*18:01; [10]): 11.3 µM

REPAGLGSM
Kd (HLA-B*40:01; [10]): 7.91 µM | Kd (HLA-B*40:02; [10]): 0.0859 µM | Kd (HLA-B*45:01; [10]): ≥ 77.7 µM | Kd (HLA-B*44:02; [10]): ≥ 33.5 µM | Kd (HLA-B*44:03; [10]): ≥ 78.1 µM | Kd (HLA-B*18:01; [10]): 8.15 µM

RRDKRSVAL
Kd (HLA-B*48:01): 0.153 µM

RSLIGNEEY
Kd (HLA-B*58:01 [1]; [11]): 0.0272 µM | Kd (HLA-A*30:02): ≥ 30.1 µM | Kd (HLA-A*01:01): 6.72 µM

RSVALVPHV
Kd (HLA-B*58:01 [1]; [11]): 0.00881 µM

SDHLISEML
Kd (HLA-B*40:01; [12]): ≥ 22.4 µM | Kd (HLA-B*40:02; [12]): 0.217 µM | Kd (HLA-B*45:01; [12]): 17.2 µM | Kd (HLA-B*44:02; [12]): 12.2 µM | Kd (HLA-B*44:03; [12]): ≥ 31.7 µM | Kd (HLA-B*18:01; [12]): ≥ 77.5 µM

SIPLGVIHN
IC50 (HLA-A*11:01; [13]): ≥ 158 µM

SLSMTCIAV
Kd (HLA-A*02:01 [2]; [14]): 0.0134 µM | Kd (HLA-A*02:03; [15]): 0.124 µM | Kd (HLA-A*02:17; [14]): 0.0491 µM

SMAMTCIAV
Kd (HLA-A*02:01 [2]; [16]): 0.0119 µM | Kd (HLA-A*02:03; [16]): 0.00407 µM | Kd (HLA-A*02:17; [16]): 0.074 µM

SMINGVVKL
Kd (HLA-A*02:03; [17]): 0.0184 µM | Kd (HLA-A*32:01): 1.49 µM | Kd (HLA-A*02:17; source organism: Dengue virus 3 China/80-2/1980): 0.425 µM

SSGYYSTTI
IC50 (HLA-A*24:02; [13]): 2.14 µM | IC50 (HLA-A*02:01 [3]): 65.2 µM | IC50 (HLA-A*11:01; [13]): 33.8 µM

TELEPPCRF
Kd (HLA-B*40:01; [9]): ≥ 28.5 µM | Kd (HLA-B*40:02; [9]): 14 µM | Kd (HLA-B*45:01; [9]): 12.1 µM | Kd (HLA-B*44:02; [9]): 0.099 µM | Kd (HLA-B*44:03; [9]): 0.0629 µM | Kd (HLA-B*18:01; [9]): 0.892 µM

TLAQSLIDV
Kd (HLA-A*02:11): 0.002 µM | Kd (HLA-A*02:01 [4]): ≤ 0.001 µM | Kd (HLA-A*02:12): 0.004 µM | Kd (HLA-A*02:19): 0.006 µM

TLMAMDLGEL
Kd (HLA-A*02:01 [2]; [18]): 0.0145 µM | Kd (HLA-A*02:03; source organism: Dengue virus 2 Peru/IQT2913/1996): 0.00836 µM | Kd (HLA-A*02:17; [18]): 0.273 µM

TLTAAVLLLV
Kd (HLA-A*02:03; [19]): 0.00574 µM | Kd (HLA-A*02:17; [19]): 0.219 µM

TVIPFYFVW
Kd (HLA-B*58:01 [5]): 0.0413 µM | Kd (HLA-B*15:17): 0.0068 µM | Kd (HLA-B*57:01 [6]): 0.275 µM

VASEMAEALK
Kd (HLA-B*58:01 [1]; [15]): ≥ 10 µM

VGVVVSTNR
IC50 (HLA-A*11:01; [8]): 21.5 µM

VIASSGMLW
Kd (HLA-B*58:01 [1]; [17]): 0.056 µM

VTRLENLMW
Kd (HLA-B*57:01 [7]): 0.00379 µM

WMSSEGAWKH
Kd (HLA-B*58:01 [1]; [11]): 0.215 µM

YDQMKCKSL
Kd (HLA-B*40:01; [10]): ≥ 76.1 µM | Kd (HLA-B*40:02; [10]): 3.2 µM | Kd (HLA-B*45:01; [10]): ≥ 59.4 µM | Kd (HLA-B*44:02; [10]): ≥ 76.2 µM | Kd (HLA-B*44:03; [10]): ≥ 78.1 µM | Kd (HLA-B*18:01; [10]): ≥ 77.5 µM
